Data from patent US20090060915A1.

How the values were obtained:
Assay in all cases: cell-based or functional assay
[1] = target: endogenous angiomotin of bovine capillary endothelial (BCE) cells (p80- and p130-isoforms) (bovine)
[2] = target: p130-angiomotin (Homo sapiens (Human)) (UniProt Q4VCS5)
[3] = target: p80-angiomotin (Homo sapiens (Human)) (UniProt Q4VCS5)

decrease in bFGF-stimulated migration of hTERT+-BCE cells, migration chamber assay [1]: 85% | decrease in bFGF-stimulated migration of MAE cells expressing p130-angiomotin, Boyden chamber, angiostatin 5 ug/ml [2]: 160% | decrease in motility of CHO cells expressing p130-angiomotin, Boyden chamber [2]: 50% | invasion of Matrigel by human cytotrophoblasts, angiostatin 5 ug/ml [2]: 3 fold | decrease in bFGF-stimulated migration of MAE cells expressing p80-angiomotin, Boyden chamber, angiostatin 5 ug/ml [3]: 175% | decrease in motility of CHO cells expressing p80-angiomotin, Boyden chamber [3]: 50% | invasion of Matrigel by human cytotrophoblasts, angiostatin 5 ug/ml [3]: 3 fold
Substance: Human angiostatin (kringle 1-4) (from UniProt P00747 99-459) (ligand)
